The record followed here is patent US20130203616A1.

The target in assay [1] is Human serum albumin (HSA) (human) (UniProt P02768). The assay is described as follows: bridging ELISA after sample preparation, plate coated with 20 µg/mL HSA, antibody in neat human serum. (An ELISA detects its analyte on a solid surface through an enzyme-linked reagent.)
For assay [2] the target is unchanged. Kind of assay: competitive indirect ELISA, antibody in buffer captured on Protein A/G plate, HRP-conjugated HSA detection.
Assay [3] has the same target. The assay is described as follows: competitive indirect ELISA, antibody in 1% pooled normal human serum preincubated with HRP-conjugated HSA, then Protein A/G plate.
Assay [4] shares this target. Kind of assay: bridging ELISA (HSA on plate, biotin-HSA in solution), antibody spiked in normal human serum, after Protein A/G enrichment and acid elution.
Assay [5] has the same target. The assay is described as follows: competitive indirect ELISA, antibody in neat human serum, mixed with HRP-conjugated HSA, then Protein A/G plate.

The substance Rabbit anti-HSA antibody, ABCAM ab31657 had a limit of detection in assay [1] of 250 ng/mL. In assay [2], this substance yielded a lowest antibody concentration detected of 0.48 ng/mL. Besides, the detection limit in assay [3] turned out to be 3 µg/mL; in assay [4], 125 ng/mL. In assay [5], the assay sensitivity turned out to be 10 µg/mL.
